In the supplement of paper PMC10065799, “High-throughput profiling of sequence recognition by tyrosine kinases and SH2 domains using bacterial peptide display” (eLife, 2023):

How the values were obtained:
Hck = Hck (UniProt P08631); assay: phosphorylation enrichment, bacterial display (enrichment ratio); higher = better substrate or ligand; peptides without Tyr show the background
EPHB2 = EPHB2 (UniProt P29323); assay: as above
Fer (mouse) = assay: as above
Fyn = Fyn (UniProt P06241); assay: as above
Chain of Fyn (P06241 whole entry, looked up): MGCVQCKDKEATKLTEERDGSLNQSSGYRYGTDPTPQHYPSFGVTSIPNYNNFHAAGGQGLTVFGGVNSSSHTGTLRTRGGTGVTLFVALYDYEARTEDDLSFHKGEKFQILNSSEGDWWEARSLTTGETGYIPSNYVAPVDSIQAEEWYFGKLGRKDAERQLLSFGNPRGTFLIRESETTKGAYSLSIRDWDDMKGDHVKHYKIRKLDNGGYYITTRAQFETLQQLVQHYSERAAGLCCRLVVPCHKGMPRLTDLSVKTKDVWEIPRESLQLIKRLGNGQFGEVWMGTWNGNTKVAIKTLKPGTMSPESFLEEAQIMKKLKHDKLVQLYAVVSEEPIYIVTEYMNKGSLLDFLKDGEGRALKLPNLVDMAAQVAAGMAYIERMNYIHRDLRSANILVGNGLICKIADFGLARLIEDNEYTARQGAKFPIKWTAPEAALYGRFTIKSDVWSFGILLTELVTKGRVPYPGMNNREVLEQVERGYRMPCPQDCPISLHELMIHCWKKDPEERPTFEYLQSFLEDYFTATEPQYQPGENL

EPHB1 = EPHB1 (UniProt P54762); assay: as above
Fes = Fes (UniProt P07332); assay: as above
AncSZ = assay: as above
FGFR1 = FGFR1 (UniProt P11362); assay: as above
c-Abl (mouse) = assay: as above
FGFR3 = FGFR3 (UniProt P22607); assay: as above
Chain of FGFR3 (P22607 whole entry, looked up): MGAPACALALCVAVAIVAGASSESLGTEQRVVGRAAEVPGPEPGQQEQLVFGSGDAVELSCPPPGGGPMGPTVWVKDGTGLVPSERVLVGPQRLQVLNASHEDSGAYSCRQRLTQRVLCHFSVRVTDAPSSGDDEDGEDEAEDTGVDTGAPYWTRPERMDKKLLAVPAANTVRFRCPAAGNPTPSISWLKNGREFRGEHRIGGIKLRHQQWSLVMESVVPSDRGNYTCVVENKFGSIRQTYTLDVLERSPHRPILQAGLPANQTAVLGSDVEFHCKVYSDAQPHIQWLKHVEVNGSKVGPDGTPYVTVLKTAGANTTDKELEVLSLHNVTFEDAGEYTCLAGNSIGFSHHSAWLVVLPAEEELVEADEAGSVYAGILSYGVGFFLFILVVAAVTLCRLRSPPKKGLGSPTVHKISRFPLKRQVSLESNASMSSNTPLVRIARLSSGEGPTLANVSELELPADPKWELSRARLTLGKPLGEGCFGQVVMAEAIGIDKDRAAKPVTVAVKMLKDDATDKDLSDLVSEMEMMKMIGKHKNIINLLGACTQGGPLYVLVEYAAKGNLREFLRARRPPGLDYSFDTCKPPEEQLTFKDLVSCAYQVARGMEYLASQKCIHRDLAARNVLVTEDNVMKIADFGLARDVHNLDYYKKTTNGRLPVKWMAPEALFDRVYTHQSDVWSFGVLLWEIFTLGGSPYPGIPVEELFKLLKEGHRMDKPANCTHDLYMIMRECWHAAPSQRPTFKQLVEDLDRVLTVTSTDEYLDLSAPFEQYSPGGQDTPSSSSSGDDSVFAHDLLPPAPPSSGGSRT

Jak2 = Jak2 (UniProt O60674); assay: as above
Chain of Jak2 (O60674 whole entry, looked up): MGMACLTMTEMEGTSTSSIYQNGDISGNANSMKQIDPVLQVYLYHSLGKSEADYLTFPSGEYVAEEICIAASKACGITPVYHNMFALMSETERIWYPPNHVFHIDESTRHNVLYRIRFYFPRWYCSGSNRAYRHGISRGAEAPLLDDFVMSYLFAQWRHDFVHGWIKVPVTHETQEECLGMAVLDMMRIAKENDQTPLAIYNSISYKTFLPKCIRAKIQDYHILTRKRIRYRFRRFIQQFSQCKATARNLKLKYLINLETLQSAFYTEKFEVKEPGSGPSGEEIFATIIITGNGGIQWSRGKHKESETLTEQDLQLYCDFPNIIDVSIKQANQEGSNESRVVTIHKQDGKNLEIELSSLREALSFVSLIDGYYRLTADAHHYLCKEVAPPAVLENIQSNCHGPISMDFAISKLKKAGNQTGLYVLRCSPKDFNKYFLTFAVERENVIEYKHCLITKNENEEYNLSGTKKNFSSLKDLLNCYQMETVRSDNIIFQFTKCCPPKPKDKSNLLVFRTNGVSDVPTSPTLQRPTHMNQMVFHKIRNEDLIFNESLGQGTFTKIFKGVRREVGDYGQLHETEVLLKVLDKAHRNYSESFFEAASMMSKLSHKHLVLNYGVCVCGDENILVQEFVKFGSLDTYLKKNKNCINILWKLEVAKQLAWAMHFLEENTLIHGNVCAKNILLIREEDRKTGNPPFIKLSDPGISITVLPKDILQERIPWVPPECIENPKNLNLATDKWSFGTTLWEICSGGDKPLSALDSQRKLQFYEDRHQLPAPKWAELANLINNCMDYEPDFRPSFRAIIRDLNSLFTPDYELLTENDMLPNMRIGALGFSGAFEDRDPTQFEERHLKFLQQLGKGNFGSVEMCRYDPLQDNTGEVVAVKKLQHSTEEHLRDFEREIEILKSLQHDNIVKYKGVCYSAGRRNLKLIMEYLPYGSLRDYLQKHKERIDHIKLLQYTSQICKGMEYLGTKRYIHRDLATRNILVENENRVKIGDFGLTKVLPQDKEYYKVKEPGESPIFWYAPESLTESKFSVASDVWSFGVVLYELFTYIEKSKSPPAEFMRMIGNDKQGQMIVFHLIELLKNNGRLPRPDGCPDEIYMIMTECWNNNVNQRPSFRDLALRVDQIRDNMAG

c-Src = assay: as above
MERTK = MERTK (UniProt Q12866); assay: as above
c-Src SH2 = assay: SH2 binding enrichment of the phosphorylated peptide, bacterial display (enrichment ratio); higher = better substrate or ligand; peptides without Tyr show the background
SHP2-C SH2 = assay: as above
Grb2 SH2 = Grb2 SH2 (UniProt P62993); assay: as above
Chain of Grb2 SH2 (P62993 whole entry, looked up, the tested form may be a part): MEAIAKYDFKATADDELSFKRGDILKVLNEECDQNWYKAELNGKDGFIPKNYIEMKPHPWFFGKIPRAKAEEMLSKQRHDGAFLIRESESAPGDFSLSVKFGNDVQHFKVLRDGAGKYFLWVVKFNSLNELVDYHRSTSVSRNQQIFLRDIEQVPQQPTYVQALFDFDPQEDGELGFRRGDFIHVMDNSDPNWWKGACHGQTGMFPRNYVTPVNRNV
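For SH2 binding enrichment of the phosphorylated peptide, bacterial display in this document: peptide library displayed on the E. coli surface as eCPX fusions, selected cells deep-sequenced, score is each peptide's frequency after selection divided by its frequency in the input.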
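For phosphorylation enrichment, bacterial display in this document: 11-residue human phosphosite peptides and single-mutation variants displayed on the E. coli surface, counted by deep sequencing, each peptide's frequency after selection divided by its frequency in the unselected input library; frequency after pTyr selection over input frequency; kinase dosed for 20-30% of maximal phosphorylation in three min.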

Chain of EPHB2 (P29323 whole entry, looked up): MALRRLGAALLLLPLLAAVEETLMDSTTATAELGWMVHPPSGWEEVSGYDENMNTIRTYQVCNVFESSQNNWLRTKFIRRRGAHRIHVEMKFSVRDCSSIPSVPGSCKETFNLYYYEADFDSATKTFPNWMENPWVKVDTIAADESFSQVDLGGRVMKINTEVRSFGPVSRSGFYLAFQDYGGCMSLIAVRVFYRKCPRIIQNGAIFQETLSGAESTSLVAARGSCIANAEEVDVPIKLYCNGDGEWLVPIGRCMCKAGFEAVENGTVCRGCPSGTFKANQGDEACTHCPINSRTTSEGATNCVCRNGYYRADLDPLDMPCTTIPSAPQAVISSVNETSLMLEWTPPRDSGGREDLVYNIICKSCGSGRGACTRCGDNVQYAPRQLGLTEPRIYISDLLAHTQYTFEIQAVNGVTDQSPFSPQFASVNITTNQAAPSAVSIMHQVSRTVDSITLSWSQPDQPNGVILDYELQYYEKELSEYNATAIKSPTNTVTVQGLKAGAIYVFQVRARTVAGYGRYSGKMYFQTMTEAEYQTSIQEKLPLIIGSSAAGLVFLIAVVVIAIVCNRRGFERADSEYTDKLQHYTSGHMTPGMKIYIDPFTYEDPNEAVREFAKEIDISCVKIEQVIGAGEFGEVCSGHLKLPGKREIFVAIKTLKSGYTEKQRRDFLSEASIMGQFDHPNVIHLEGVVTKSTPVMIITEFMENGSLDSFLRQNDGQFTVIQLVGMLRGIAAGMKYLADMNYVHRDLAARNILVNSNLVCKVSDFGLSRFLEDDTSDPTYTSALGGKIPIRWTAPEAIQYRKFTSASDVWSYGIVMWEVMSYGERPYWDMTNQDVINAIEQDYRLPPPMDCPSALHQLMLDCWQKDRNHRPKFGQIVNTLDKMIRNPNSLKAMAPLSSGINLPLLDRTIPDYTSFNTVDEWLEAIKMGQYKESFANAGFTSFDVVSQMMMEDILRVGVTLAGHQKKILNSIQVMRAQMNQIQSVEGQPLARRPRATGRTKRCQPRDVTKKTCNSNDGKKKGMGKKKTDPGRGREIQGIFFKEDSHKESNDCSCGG
Chain of Hck (P08631 whole entry, looked up): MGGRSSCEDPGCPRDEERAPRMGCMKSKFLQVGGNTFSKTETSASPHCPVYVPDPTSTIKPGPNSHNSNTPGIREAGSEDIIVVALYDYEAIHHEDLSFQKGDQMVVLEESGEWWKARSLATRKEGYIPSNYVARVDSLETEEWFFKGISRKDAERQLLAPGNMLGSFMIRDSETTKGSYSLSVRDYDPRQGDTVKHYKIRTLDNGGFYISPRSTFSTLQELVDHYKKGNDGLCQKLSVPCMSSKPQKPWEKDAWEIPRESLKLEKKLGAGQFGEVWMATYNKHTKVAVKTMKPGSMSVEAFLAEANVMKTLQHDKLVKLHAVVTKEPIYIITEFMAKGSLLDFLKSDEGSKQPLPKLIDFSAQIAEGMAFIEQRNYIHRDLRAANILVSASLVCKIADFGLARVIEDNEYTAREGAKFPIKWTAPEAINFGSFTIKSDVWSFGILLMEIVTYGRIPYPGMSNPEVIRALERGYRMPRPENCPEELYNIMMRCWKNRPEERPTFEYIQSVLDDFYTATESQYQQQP

Row | Sequence | phosphorylation enrichment (Hck) | phosphorylation enrichment (EPHB2) | phosphorylation enrichment (Fer (mouse)) | phosphorylation enrichment (Fyn) | phosphorylation enrichment (EPHB1) | phosphorylation enrichment (Fes) | phosphorylation enrichment (AncSZ) | phosphorylation enrichment (FGFR1) | phosphorylation enrichment (c-Abl (mouse)) | phosphorylation enrichment (FGFR3) | phosphorylation enrichment (Jak2) | phosphorylation enrichment (c-Src) | phosphorylation enrichment (MERTK) | SH2 binding enrichment (c-Src SH2) | SH2 binding enrichment (SHP2-C SH2) | SH2 binding enrichment (Grb2 SH2)
1 | CDGKEYDPVEA [MAPRE2_Y167_Y162C] | 0.567 | 0.66 | 0.65 | 0.598 | 0.64 | 1.66 | 1.36 | 0.594 | 0.883 | 0.721 | 1.54 | 0.649 | 0.541 | 0.615 | 0.891 | 0.714
2 | CDLTDYLMKIL [ACTA1_Y190_R185C] | 0.587 | 0.75 | 0.541 | 0.478 | 0.791 | 1.7 | 1.39 | 0.476 | 0.83 | 1.02 | 1.13 | 0.394 | 0.416 | 0.664 | 0.647 | 0.973
3 | CEAIEYLESKQ [BTK_Y511_M509I] | 0.552 | 0.553 | 0.521 | 0.485 | 0.631 | 1.39 | 1.29 | 0.574 | 0.816 | 0.835 | 1.33 | 0.549 | 0.461 | 0.64 | 0.738 | 0.774
4 | CEAMEYPESKQ [BTK_Y511_L512P] | 0.572 | 0.735 | 0.705 | 0.543 | 0.676 | 1.42 | 1.28 | 0.571 | 0.952 | 0.736 | 1.3 | 0.548 | 0.46 | 0.66 | 0.728 | 0.976
5 | CERFSYYGMKA [SLC15A2_Y60] | 1.16 | 0.611 | 0.558 | 0.689 | 0.843 | 1.04 | 1.59 | 3.72 | 0.737 | 2.88 | 3.12 | 1.1 | 0.665 | 1.08 | 0.799 | 0.843
6 | CGADSYEMEED [EGFR_Y316] | 0.705 | 0.72 | 0.533 | 0.534 | 0.685 | 1.27 | 1.57 | 0.536 | 0.827 | 0.899 | 1.08 | 0.483 | 0.549 | 0.797 | 0.652 | 0.825
7 | CGTPTCLAPEV [CHEK2_Y390_Y390C] | 0.436 | 0.695 | 0.54 | 0.504 | 0.545 | 1.1 | 1.18 | 0.566 | 0.759 | 0.627 | 0.816 | 0.454 | 0.491 | 0.608 | 0.932 | 0.904
8 | CNPLRYPVLMS [OR2T1_Y182] | 0.518 | 0.567 | 0.453 | 0.5 | 0.549 | 0.913 | 0.839 | 0.476 | 0.896 | 0.621 | 0.758 | 0.498 | 0.428 | 0.742 | 0.875 | 0.975
9 | CNRADYSKLAS [GNE_Y22_P27S] | 0.376 | 0.572 | 0.398 | 0.377 | 0.393 | 0.95 | 1.04 | 0.367 | 0.453 | 0.47 | 0.621 | 0.369 | 0.441 | 0.938 | 0.625 | 0.874
10 | CNTIHYNYMCN [TP53_Y234_T230N] | 0.428 | 0.581 | 0.554 | 0.413 | 0.575 | 0.865 | 0.897 | 0.586 | 0.713 | 0.653 | 0.799 | 0.532 | 0.521 | 6.74 | 4.68 | 0.937
11 | CPYNLYAEQLS [HGD_Y40] | 2.39 | 2.18 | 1.36 | 3.15 | 2.68 | 1.34 | 1.74 | 0.741 | 0.936 | 0.988 | 1.39 | 6.33 | 2.67 | 0.705 | 0.737 | 0.905
12 | CSGNCYLDIRP [FBN1_Y1535_R1530C] | 0.504 | 0.442 | 0.404 | 0.446 | 0.452 | 0.646 | 0.591 | 0.646 | 0.509 | 0.532 | 0.514 | 0.609 | 0.49 | 1.37 | 1.07 | 1.19
13 | CSKRFYQLTKL [AR_Y858_R855K] | 0.424 | 0.44 | 0.492 | 0.454 | 0.545 | 0.888 | 0.75 | 0.401 | 0.587 | 0.556 | 0.706 | 0.449 | 0.47 | 0.777 | 0.874 | 1.08
14 | CTTIHNNFMCN [TP53_Y234_Y234N_YF] | 0.517 | 0.591 | 0.558 | 0.507 | 0.606 | 0.974 | 0.879 | 0.51 | 0.593 | 0.623 | 0.95 | 0.439 | 0.459 | 1.07 | 1.32 | 1.15
15 | CTTIHYMFMCN [TP53_Y234_N235M_YF] | 0.552 | 0.668 | 0.555 | 0.445 | 0.608 | 1.22 | 1.05 | 0.526 | 0.673 | 0.659 | 1.02 | 0.38 | 0.367 | 1 | 1.51 | 1.38
16 | CTTIHYNFKCN [TP53_Y234_M237K_YF] | 0.476 | 0.392 | 0.386 | 0.405 | 0.381 | 0.75 | 0.795 | 0.472 | 0.51 | 0.494 | 0.545 | 0.411 | 0.425 | 1.23 | 1.5 | 1.23
